This note sets out measurements from KR20220012314A (dated 2022).

Where “and” joins values, the source holds several entries; their conditions need not be identical. Equal entries are not always repeated.

The target in experiment [1] is T1, 재조합 인간 BCMA-his 단백질 (Cat#BCA-H522Y, 아크로 바이오시스템즈) (human, UniProt Q02223 1-54, biotin-labelled in the capture ELISA and the benchmark-blocking ELISA).
T1 construct: Bought protein, MW 7.8 kDa as printed; not shown: his tag
T1 sequence: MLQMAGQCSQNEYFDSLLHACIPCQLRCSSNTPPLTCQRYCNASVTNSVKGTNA
Put plainly: capture ELISA: antibody captured on plate, biotin-labelled human BCMA-his 0.28 nM in solution. (In general: In an ELISA, binding on a coated surface is turned into a signal by an enzyme label.)

Experiment [2] deals with T1, 재조합 인간 BCMA-his 단백질 (Cat#BCA-H522Y, 아크로 …). Description: SPR (Biacore), human BCMA. A general note: SPR reads the build-up and loss of mass on a sensor chip optically.
For experiment [3] the target is unchanged. Description: competition ELISA: BCMA-his coated, antibody titrated, then biotin-labelled human BAFF-Fc; competitor BAFF-Fc.
For experiment [4] the target is unchanged. Description: capture ELISA with biotin-labelled human BCMA-his.
Experiment [5] has the same target. Description: competition ELISA: BCMA-his coated, antibody titrated, then biotin-labelled human BAFF-Fc 0.25 nM; competitor BAFF-Fc.
Experiment [6] concerns the target T2, 사이노몰거스 원숭이 BCMA-Fc 단백질 (아크로 바이오시스템즈, Cat#BCA-C5253) (cynomolgus monkey, UniProt A0A2K5UD97 1-53).
T2 construct: also called 사이노몰거스 BCMA-Fc; 사이노몰거스 BCMA; not shown: Fc tag
Put plainly: SPR (Biacore), cynomolgus BCMA.

The target in experiment [7] is T1, 재조합 인간 BCMA-his 단백질 (Cat#BCA-H522Y, 아크로 …). Description: competition ELISA: BM coated, antibody titrated and premixed with biotin-labelled human BCMA-his; competitor BM (self).
Experiment [8] has the same target. Description: SPR (Biacore T200), antibody captured on chip, human BCMA-his in flow, 1:1 Langmuir fit.
The target is the same in experiment [9]. Put plainly: competition ELISA: BM coated, antibody titrated and premixed with biotin-labelled human BCMA-his 0.22 nM; competitor BM (self).
Experiment [10] has the same target. Put plainly: competition ELISA: BM coated, antibody titrated and premixed with biotin-labelled human BCMA-his 0.22 nM; competitor BM.
Experiment [11] has as its target T2, 사이노몰거스 원숭이 BCMA-Fc 단백질 (아크로 바이오시스템즈, …). Description: SPR (Biacore T200), antibody captured on chip, cynomolgus BCMA-Fc in flow, 1:1 Langmuir fit.
Experiment [12] concerns the target T3, 인간 골수종 세포주 U266 표면의 인간 BCMA (human, UniProt Q02223 1-184).
T3 construct: whole, on cells; also called U266 세포; FACS 세포 결합
T3 sequence (looked up): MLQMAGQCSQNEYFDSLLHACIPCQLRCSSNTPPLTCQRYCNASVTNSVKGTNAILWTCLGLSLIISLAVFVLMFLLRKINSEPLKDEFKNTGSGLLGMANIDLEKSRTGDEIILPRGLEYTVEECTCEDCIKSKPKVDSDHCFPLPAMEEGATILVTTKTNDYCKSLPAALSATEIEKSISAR
Put plainly: flow cytometry on U266 cells. Background: A flow cytometer gives signals particle by particle.

T2 sequence (A0A2K5UD97 entry or part of it): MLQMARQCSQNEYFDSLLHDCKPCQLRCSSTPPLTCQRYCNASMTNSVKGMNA

B1: BCMA 벤치마크 (GSK2857916의 BCMA-결합 부분을 함유하는 항체) (antibody, human IgG1, kappa, V domains shown)
VH: QVQLVQSGAEVKKPGSSVKVSCKASGGTFSNYWMHWVRQAPGQGLEWMGATYRGHSDTYYNQKFKGRVTITADKSTSTAYMELSSLRSEDTAVYYCARGAIYDGYDVLDNWGQGTLVTVSS
VL: DIQMTQSPSSLSASVGDRVTITCSASQDISNYLNWYQQKPGKAPKLLIYYTSNLHSGVPSRFSGSGSGTDFTLTISSLQPEDFATYYCQQYRKLPWTFGQGTKLEIKR
notes: also called BM; BCMA-mab1
Turning to B1, the EC50 – broadly, the concentration that produces a half-maximal response – in experiment [1] is 1.27 nM and 1.11 nM; in [4], 0.71 nM and 0.93 nM. The Kd – broadly, the constant that tells how readily two partners part at equilibrium – in [2] came out at 0.742 nM; in experiment [6], 0.599 nM; in experiment [8], 0.742 nM. In addition, the 50% inhibitory concentration (IC50) (as a rule, the concentration needed to halve the response being measured) in experiment [3] is 3.64 nM and 3.59 nM; in [5] it was 9.61 nM and 10.7 nM; in experiment [7] it was 2.23 nM and 1.64 nM; in [9], 1.93 nM and 2.64 nM. Besides, the koff (commonly the first-order rate constant of dissociation) in experiment [8] came out at 0.000245 s⁻¹. For the same molecule, the kon (as a rule, a measure of how fast the partners come together) in experiment [8] came out at 330000 M⁻¹ s⁻¹.

B2: 마우스 항-BCMA 단일클론 항체 B1A1 (antibody, V domains shown)
VH: DVQLQESGPGLVKPSQSLSLTCSVTGYSITSAYYWNWIRQFPGNKLEWMGYIRYDGSNNYNPSLKNRISITRDTSKNQFFLKLNSVTAEDTATYYCAPYDYDEVFAYWGQGTLVTVSA
VL: DIVMTQSHKFMSTSVGDRVSITCKASQEVSTAVAWYQQKPGQSPKLLIYWASMRHTGVPDRFTGSGSGTDYTLIITSVQAEDLALYYCQQYYSTPLTFGAGTKLELK
For B2, the figures for the concentration giving a half-maximal response (EC50) in [1] and in [12] were 1.06 nM and 2.66 nM, respectively. The IC50 stood at 1.91 nM in [10] and 7 nM in experiment [5]. Moreover, the results for the Kd in experiment [11] and in experiment [8] were 9.08 nM and 0.636 nM, respectively. In addition, the figures for the koff in experiment [11] and in [8] were 0.0148 s⁻¹ and 0.00161 s⁻¹, respectively. In addition, the on-rate constant (kon) in experiment [11] stood at 1.63e+06 M⁻¹ s⁻¹; in [8] it was 2.45e+06 M⁻¹ s⁻¹.
